According to patent US6541008 (UNIVERSITY OF OTAGO, dated 2003):

B1: mouse VEGF164 (ligand, UniProt Q00731-2 27-190, looked up)
chain: APTTEGEQKSHEVIKFMDVYQRSYCRPIETLVDIFQEYPDEIEYIFKPSCVPLMRCAGCCNDEALECVPTSESNITMQIMRIKPHQSQHIGEMSFLQHSRCECRPKKDRTKPENHCEPCSERRKHLFVQDPQTCKCSCKNTDSRCKARQLELNERTCRCDKPRR
B2: FLAG-tagged ORFV2-VEGF (ligand)
chain: DSNTKGWSEVLKGSECKPRPIVVPVSETHPELTSQRFNPPCVTLMRCGGCCNDESLECVPTEEVNVTMELLGASGSGSNGMQRLSFVEHKKCDCRPRFTTTPPTTTRPPRRRR
notes: Disulfide-linked homodimer, glycosylated; Expressed in COS or 293EBNA cells; also called NZ2; ORVF2-VEGF; not shown: FLAG octapeptide at the C-terminus
B3: FLAG-tagged NZ10 (ligand)
chain: DSTKTWSEVFESSKCKPRPTVVPVGEAHPELTSQRFNPQCVTVMRCGGCCNDESLECVPTEEANVTMQLMGASVSGGNGMQHLIFVEHKKCDCKPRLTTTPPTTTRPPRRRR
notes: Disulfide-linked homodimer, secreted from 293EBNA-1 cells and purified on M2-gel; also called ORFV10-VEGF; not shown: FLAG octapeptide at the C-terminus

Tests used:
VEGFR-1-Ig [1] = molecular target: T1, VEGFR-1-Ig (human, UniProt P17948 27-758); assay: precipitation of 35S-labeled conditioned medium with receptor-Ig on protein A-Sepharose, SDS-PAGE, phosphorimager
T1 construct: extracellular domain; also called soluble Ig-fusion protein containing the extracellular domain of human VEGFR-1; not shown: Fc portion of human IgG1
T1 sequence (P17948 27-758): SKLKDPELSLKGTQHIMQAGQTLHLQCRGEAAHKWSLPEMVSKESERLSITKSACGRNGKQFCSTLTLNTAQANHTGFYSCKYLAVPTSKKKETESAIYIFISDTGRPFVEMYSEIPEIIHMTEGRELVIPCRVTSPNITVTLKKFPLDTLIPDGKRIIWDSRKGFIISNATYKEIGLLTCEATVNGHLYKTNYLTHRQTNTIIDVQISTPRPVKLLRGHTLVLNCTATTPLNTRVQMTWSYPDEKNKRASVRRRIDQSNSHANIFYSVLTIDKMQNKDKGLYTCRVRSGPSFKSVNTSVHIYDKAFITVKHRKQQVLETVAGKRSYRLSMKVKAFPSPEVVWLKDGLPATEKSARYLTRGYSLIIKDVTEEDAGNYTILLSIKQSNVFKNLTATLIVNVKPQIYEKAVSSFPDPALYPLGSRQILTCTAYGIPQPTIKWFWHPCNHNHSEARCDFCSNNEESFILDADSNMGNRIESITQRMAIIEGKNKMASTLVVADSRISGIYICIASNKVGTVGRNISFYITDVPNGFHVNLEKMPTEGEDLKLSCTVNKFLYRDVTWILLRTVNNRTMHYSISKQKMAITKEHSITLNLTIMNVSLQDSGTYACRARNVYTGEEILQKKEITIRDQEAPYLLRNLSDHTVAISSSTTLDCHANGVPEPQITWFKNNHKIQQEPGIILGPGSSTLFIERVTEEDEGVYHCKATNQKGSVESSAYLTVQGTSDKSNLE
Method: (§1) To further assess the interactions between ORFV2-VEGF and the VEGFRs, ORFV2-VEGF was tested for its capacity to bind to soluble Ig-fusion proteins containing the extracellular domains of human VEGFR-1, VEGFR-2 and VEGFR-3. The fusion proteins, designated VEGFR-1-Ig, VEGFR-2-Ig and VEGFR-3-Ig, were transiently expressed in 293 EBNA cells. All Ig fusion proteins were human VEGFRs. Cells were incubated for 24 hours after transfection, washed with DMEM containing 0.2% bovine serum albumin and starved for 24 hours. The fusion proteins were then precipitated from the clarified conditioned medium using protein A-Sepharose beads. The beads were combined with 100 µl of 10x binding buffer (5% bovine serum albumin, 0.2% Tween 20 and 10 µg/ml heparin) and 900 µl of conditioned medium from 293 cells that had been transfected with expression plasmids encoding VEGF, VEGF-DΔNΔC,ORFV2-VEGF or control vector, then metabolically labeled with ^35S-cysteine/methionine for 4 to 16 hours. After 2.5 hours, at room temperature, the Sepharose beads were washed 3 times with binding buffer at 4° C., once with phosphate buffered saline and boiled in SDS-PAGE buffer. Labeled proteins that were bound to the Ig-fusion proteins were analyzed by SDS-PAGE under reducing conditions. Radiolabeled proteins were detected using a phosphorimager analyzer.

VEGFR-2-Ig = molecular target: T2, VEGFR-2-Ig (human, UniProt P35968 20-764); assay: as above
T2 construct: extracellular domain; also called soluble Ig-fusion protein containing the extracellular domain of human VEGFR-2; not shown: Fc portion of human IgG1
T2 sequence (P35968 20-764): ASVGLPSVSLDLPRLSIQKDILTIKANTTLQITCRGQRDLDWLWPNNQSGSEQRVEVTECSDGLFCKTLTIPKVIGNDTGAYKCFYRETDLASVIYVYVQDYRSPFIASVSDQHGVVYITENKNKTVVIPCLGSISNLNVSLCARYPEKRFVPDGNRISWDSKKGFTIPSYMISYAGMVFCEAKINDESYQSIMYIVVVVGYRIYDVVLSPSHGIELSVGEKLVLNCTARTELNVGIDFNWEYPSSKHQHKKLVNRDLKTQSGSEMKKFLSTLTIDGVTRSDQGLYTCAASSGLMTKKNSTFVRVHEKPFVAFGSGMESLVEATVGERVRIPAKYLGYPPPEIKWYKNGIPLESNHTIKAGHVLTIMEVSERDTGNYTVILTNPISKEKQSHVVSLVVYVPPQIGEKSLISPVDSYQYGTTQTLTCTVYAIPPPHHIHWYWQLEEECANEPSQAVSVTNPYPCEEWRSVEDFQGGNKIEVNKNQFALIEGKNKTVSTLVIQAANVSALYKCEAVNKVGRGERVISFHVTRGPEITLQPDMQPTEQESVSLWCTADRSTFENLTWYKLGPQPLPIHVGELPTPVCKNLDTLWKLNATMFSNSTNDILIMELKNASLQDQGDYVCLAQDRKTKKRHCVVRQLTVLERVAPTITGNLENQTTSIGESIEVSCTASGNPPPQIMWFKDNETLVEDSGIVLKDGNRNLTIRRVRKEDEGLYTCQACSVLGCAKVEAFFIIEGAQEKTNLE
Method: as §1

VEGFR-3-Ig = molecular target: T3, VEGFR-3-Ig (human, UniProt P35916 25-775); assay: as above
T3 construct: extracellular domain; also called soluble Ig-fusion protein containing the extracellular domain of human VEGFR-3; not shown: Fc portion of human IgG1
T3 sequence (looked up): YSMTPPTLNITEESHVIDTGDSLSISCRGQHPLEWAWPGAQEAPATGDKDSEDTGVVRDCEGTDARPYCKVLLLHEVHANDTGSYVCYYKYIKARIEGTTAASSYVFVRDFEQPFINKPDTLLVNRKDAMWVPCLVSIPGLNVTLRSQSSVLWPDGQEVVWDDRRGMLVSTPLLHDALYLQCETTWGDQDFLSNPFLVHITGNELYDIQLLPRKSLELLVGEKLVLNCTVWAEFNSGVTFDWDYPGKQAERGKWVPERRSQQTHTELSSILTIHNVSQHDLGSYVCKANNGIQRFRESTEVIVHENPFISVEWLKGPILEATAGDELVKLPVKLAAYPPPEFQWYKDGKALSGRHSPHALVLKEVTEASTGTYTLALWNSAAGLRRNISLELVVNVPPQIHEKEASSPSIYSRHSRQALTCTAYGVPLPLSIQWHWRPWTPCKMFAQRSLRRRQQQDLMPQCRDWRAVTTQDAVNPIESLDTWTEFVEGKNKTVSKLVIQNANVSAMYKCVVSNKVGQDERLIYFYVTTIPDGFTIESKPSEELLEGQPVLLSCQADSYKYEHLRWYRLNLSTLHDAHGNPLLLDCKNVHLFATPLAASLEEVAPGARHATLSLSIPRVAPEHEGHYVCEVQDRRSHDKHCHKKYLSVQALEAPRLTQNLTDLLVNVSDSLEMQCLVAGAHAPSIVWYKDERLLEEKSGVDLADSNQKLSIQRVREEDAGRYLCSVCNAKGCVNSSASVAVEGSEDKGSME
Method: as §1

[2] = molecular target: chimeric receptor consisting of the extracellular domain of mouse VEGFR-2 and the transmembrane and … (mouse, UniProt P35918 20-762; P14753 250-507, limits assumed); assay: cell-based or functional assay
chimeric receptor consisting of the extracellular domain of mouse VEGFR-2 and the transmembrane and …, sequence (P35918 other isoform, or with tags, fused parts or gaps mutant limits assumed): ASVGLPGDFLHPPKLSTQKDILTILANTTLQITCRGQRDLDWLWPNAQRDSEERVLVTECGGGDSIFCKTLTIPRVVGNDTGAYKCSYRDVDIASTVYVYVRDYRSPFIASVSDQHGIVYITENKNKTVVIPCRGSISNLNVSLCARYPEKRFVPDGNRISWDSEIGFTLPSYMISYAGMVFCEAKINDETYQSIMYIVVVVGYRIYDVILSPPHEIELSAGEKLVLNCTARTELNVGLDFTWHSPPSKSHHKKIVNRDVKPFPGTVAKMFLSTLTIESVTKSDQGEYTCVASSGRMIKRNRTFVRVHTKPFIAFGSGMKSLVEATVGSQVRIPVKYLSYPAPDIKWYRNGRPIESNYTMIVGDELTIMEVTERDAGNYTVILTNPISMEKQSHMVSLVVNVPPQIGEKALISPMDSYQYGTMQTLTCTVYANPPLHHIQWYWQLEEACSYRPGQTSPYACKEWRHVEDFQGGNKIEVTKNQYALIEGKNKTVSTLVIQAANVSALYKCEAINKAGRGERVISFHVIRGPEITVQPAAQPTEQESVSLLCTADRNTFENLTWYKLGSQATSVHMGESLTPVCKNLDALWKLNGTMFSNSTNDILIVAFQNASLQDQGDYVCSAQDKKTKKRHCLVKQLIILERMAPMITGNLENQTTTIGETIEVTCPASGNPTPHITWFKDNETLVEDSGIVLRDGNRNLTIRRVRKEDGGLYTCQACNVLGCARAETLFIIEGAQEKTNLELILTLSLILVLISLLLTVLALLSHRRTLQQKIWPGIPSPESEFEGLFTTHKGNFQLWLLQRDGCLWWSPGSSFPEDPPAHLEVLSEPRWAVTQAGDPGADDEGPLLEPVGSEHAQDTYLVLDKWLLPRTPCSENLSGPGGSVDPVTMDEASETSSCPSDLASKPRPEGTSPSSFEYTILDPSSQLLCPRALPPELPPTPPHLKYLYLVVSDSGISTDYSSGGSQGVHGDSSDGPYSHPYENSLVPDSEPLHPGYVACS

VEGFR-1-Ig [3] = molecular target: T1, VEGFR-1-Ig; assay: not described; told in Example 3 with the receptor-Ig precipitations

| Binder | binding result (VEGFR-1-Ig [1]) | binding result (VEGFR-2-Ig) | binding result (VEGFR-3-Ig) | potency in the Ba/F3 VEGFR-2-EpoR bioassay compared to mouse VEGF [2] | binding result (VEGFR-1-Ig [3]) |
| --- | --- | --- | --- | --- | --- |
| B1 | binds | binds | no binding | – | – |
| B2 | no binding | binds | no binding | ~4 fold less potent than mouse VEGF | – |
| B3 | – | – | – | – | no binding |
